The source of these data is patent EP4782541A1 (Nanjing Probio Biotech Co., Ltd., dated 2026).

One may read the EC50 as the concentration needed to bring the measured effect to its halfway point. A low value points to greater potency.

For the experiment, the target named is T1, human CD3 (on Jurkat cells) (human, UniProt P07766 23-207; P09693 23-182; P04234 22-171).
T1 construct: whole, on cells
Description: flow cytometry on Jurkat cells expressing human CD3.

T1 sequence (P07766 23-207, chain 1 of 3): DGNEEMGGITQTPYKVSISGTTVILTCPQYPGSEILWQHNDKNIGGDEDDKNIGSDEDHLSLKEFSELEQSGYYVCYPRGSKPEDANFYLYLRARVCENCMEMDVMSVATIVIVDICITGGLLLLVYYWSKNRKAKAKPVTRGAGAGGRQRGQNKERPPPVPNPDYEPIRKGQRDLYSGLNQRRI
T1 sequence (P09693 23-182, chain 2 of 3): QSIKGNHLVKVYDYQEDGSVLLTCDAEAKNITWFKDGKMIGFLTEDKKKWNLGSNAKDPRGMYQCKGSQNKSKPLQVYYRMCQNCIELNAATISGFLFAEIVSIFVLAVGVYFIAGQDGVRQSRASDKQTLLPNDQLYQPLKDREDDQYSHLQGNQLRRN
T1 sequence (P04234 22-171, chain 3 of 3): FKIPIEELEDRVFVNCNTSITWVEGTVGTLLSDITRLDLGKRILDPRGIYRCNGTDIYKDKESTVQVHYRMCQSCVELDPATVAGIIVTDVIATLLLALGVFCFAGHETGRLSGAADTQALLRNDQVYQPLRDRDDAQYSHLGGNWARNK

B1: BsAb-6 (bispecific antibody, human IgG1, lambda)
chain: EVQLVESGGGLVQPGGSLRLSCAASYFISRFYAVGWYRQAPGKQRELVARISSGGWTYYADSVKGRFTISIDNSKNTLYLQMNSLRAEDTAVYYCNARNLWGQGTLVTVSSGGGGSGGGGSGGGGSEVQLVESGGGLVQPGGSLRLSCAASYFISRFYAVGWYRQAPGKQRELVARISSGGWTYYADSVKGRFTISIDNSKNTLYLQMNSLRAEDTAVYYCNARNLWGQGTLVTVSSDKTHTCPPCPAPESTRGPSVFLFPPKPKDTLMISRTPEVTCVVVDVSHEDPEVKFNWYVDGVEVHNAKTKPREEQYNSTYRVVSVLTVLHQDWLNGKEYKCKVSNKALPAPIEKTISKAKGQPREPQVCTLPPSRDELTKNQVSLSCAVKGFYPSDIAVEWESNGQPENNYKTTPPVLDSDGSFFLVSKLTVDKSRWQQGNVFSCSVMHEALHNHYTQKSLSLSPGK
heavy: EVQLVESGGGLVQPGRSLRLSCAASGFTFNTYAMNWVRQAPGKGLEWVARIRSKYNNYATYYADSVKDRFTISRDDSKSIAYLQMNSLKTEDTAVYYCVRHGNFGNSYVSWFAYWGQGTLVTVSSASTKGPSVFPLAPSSKSTSGGTAALGCLVKDYFPEPVTVSWNSGALTSGVHTFPAVLQSSGLYSLSSVVTVPSSSLGTQTYICNVNHKPSNTKVDKKVEPKSCDKTHTCPPCPAPESTRGPSVFLFPPKPKDTLMISRTPEVTCVVVDVSHEDPEVKFNWYVDGVEVHNAKTKPREEQYNSTYRVVSVLTVLHQDWLNGKEYKCKVSNKALPAPIEKTISKAKGQPREPQVYTLPPCRDELTKNQVSLWCLVKGFYPSDIAVEWESNGQPENNYKTTPPVLDSDGSFFLYSKLTVDKSRWQQGNVFSCSVMHEALHNHYTQKSLSLSPGK
light: QTVVTQEPSLTVSPGGTVTLTCRSSTGAVTTSNYANWVQQKPGQAPRGLIGGTNKRAPGVPARFSGSLLGGKAALTLSGVQPEDEAEYFCALWYSNLWVFGGGTKLTVLGQPKAAPSVTLFPPSSEELQANKATLVCLISDFYPGAVTVAWKADSSPVKAGVETTTPSKQSNNKYAASSYLSLTPEQWKSHRSYSCQVTHEGSTVEKTVAPTECS
notes: also called BsAb-06
In turn, B1 had an EC50 of 1180 pM.

B2: BsAb-7 (bispecific antibody, human IgG1, lambda)
chain: QVQLVESGGGVVQPGGSLRLSCAASGFVLRVNTVSWYRQAPGKQRELVALITSESNEYYDDSVKGRFTISRDNAKNTIYLHMNSLKPEDTGVYFCNFITTWGQGTQVTVSSGGGGSGGGGSGGGGSQVQLVESGGGVVQPGGSLRLSCAASGFVLRVNTVSWYRQAPGKQRELVALITSESNEYYDDSVKGRFTISRDNAKNTIYLHMNSLKPEDTGVYFCNFITTWGQGTQVTVSSDKTHTCPPCPAPESTRGPSVFLFPPKPKDTLMISRTPEVTCVVVDVSHEDPEVKFNWYVDGVEVHNAKTKPREEQYNSTYRVVSVLTVLHQDWLNGKEYKCKVSNKALPAPIEKTISKAKGQPREPQVCTLPPSRDELTKNQVSLSCAVKGFYPSDIAVEWESNGQPENNYKTTPPVLDSDGSFFLVSKLTVDKSRWQQGNVFSCSVMHEALHNHYTQKSLSLSPGK
heavy: B1 heavy
light: B1 light
notes: also called BsAb-07
Molecule B2 had an EC50 of 526 pM.

B3: BsAb-15 (bispecific antibody, human IgG1, lambda)
chain: EVQLVESGGGLVQPGGSLRLSCAASGRSFSSFQMGWFRQAPGKEREFVAASGWSGGPTYYWDSVIGRFTISTDNSKNTLYLQMNSLRAEDTAVYYCYEDRVLSGRHVRYWGQGTLVTVSSDKTHTCPPCPAPESTRGPSVFLFPPKPKDTLMISRTPEVTCVVVDVSHEDPEVKFNWYVDGVEVHNAKTKPREEQYNSTYRVVSVLTVLHQDWLNGKEYKCKVSNKALPAPIEKTISKAKGQPREPQVCTLPPSRDELTKNQVSLSCAVKGFYPSDIAVEWESNGQPENNYKTTPPVLDSDGSFFLVSKLTVDKSRWQQGNVFSCSVMHEALHNHYTQKSLSLSPGK
heavy: B1 heavy
light: B1 light
Take B3: a half-maximal response (EC50) required 743 pM.

B4: BsAb-11 (bispecific antibody, human IgG1, lambda)
chain: QVQLVESGGGVVQPGGSLRLSCAASGFVLRVNTVSWYRQAPGKQRELVALITSESNEYYDDSVKGRFTISRDNAKNTIYLHMNSLKPEDTGVYFCNFITTWGQGTQVTVSSDKTHTCPPCPAPESTRGPSVFLFPPKPKDTLMISRTPEVTCVVVDVSHEDPEVKFNWYVDGVEVHNAKTKPREEQYNSTYRVVSVLTVLHQDWLNGKEYKCKVSNKALPAPIEKTISKAKGQPREPQVCTLPPSRDELTKNQVSLSCAVKGFYPSDIAVEWESNGQPENNYKTTPPVLDSDGSFFLVSKLTVDKSRWQQGNVFSCSVMHEALHNHYTQKSLSLSPGK
heavy: QVQLVESGGGVVQPGGSLRLSCAASGFVLRVNTVSWYRQAPGKQRELVALITSESNEYYDDSVKGRFTISRDNAKNTIYLHMNSLKPEDTGVYFCNFITTWGQGTQVTVSSGGGGSGGGGSGGGGSEVQLVESGGGLVQPGRSLRLSCAASGFTFNTYAMNWVRQAPGKGLEWVARIRSKYNNYATYYADSVKDRFTISRDDSKSIAYLQMNSLKTEDTAVYYCVRHGNFGNSYVSWFAYWGQGTLVTVSSASTKGPSVFPLAPSSKSTSGGTAALGCLVKDYFPEPVTVSWNSGALTSGVHTFPAVLQSSGLYSLSSVVTVPSSSLGTQTYICNVNHKPSNTKVDKKVEPKSCDKTHTCPPCPAPESTRGPSVFLFPPKPKDTLMISRTPEVTCVVVDVSHEDPEVKFNWYVDGVEVHNAKTKPREEQYNSTYRVVSVLTVLHQDWLNGKEYKCKVSNKALPAPIEKTISKAKGQPREPQVYTLPPCRDELTKNQVSLWCLVKGFYPSDIAVEWESNGQPENNYKTTPPVLDSDGSFFLYSKLTVDKSRWQQGNVFSCSVMHEALHNHYTQKSLSLSPGK
light: B1 light
B4 registered an EC50 of 4000 pM.
